From patent publication US20210017281A1 (IMMUNEXT, published 2021)

B1: INX900 | VSTB50 (antibody, V domains shown)
VH: QVQLVQSGSELKKPGASVKVSCKASGYTFTNYGLNWVRQAPGQGLEWMGWINPYTGEPTYADDFKGRFVFSLDTSVSTAYLQICSLKAEDTAVYYCAREGYGNYIFPYWGQGTLVTVSS
VL: DIVMTQTPLSLSVTPGQPASISCRASESVDTYANSLMHWYLQKPGQPPQLLIYRASNLESGVPDRFSGSGSGTDFTLKISRVEAEDVGVYYCQQTNEDPRTFGQGTKLEIK
notes: INX name = the VSTB variable regions with human IgG2 constant regions
B2: VSTB59 (antibody, V domains shown)
VH: QVQLVQSGAEVKKPGASVKVSCKASGYTFTDYWMHWVRQAPGQGLEWMGAIETSLNYPSYNQKFKGRVTMTRDTSTSTVYMELSSLRSEDTAVYYCARWGIYGNPWFAYWGRGTLVTVSS
VL: DIVMTQTPLSLSVTPGQPASISCRASESVDSYVNSFVHWYLQKPGQPPQLLIYRASNLESGVPDRFSGSGSGTDFTLKISRVEAEDVGVYYCQQSNEDPYTFGQGTKLEIKR
B3: VSTB81 (antibody, V domains shown)
VH: QVTLKESGPALVKPTQTLTLTCTFSGFSLSTSGMGVSWIRQPPGKALEWLAHIYWDDDKRYNPSLKSRLTISKDTSKNQVVLTMTNMDPVDTATYYCARRPDYFGSSYVDWGQGTTVTVSS
VL: DIVMTQTPLSLSVTPGQPASISCRASESVDTYGNSFMHWYLQKPGQPPQLLIYLASNLDFGVPDRFSGSGSGTDFTLKISRVEAEDVGVYYCQQNNEDPWTFGQGTKLEIKR
B4: VSTB60 (antibody, V domains shown)
VH: QVQLVQSGSELKKPGASVKVSCKASGYTFTNYGMTWVRQAPGQGLEWMGWINTYTGESTYADDFKGRFVFSLDTSVSTAYLQICSLKAEDTAVYYCARDYYGIYVSAYWGQGTLVTVSS
VL: DIVMTQTPLSLSVTPGQPASISCRASESVDNYANSFMHWYLQKPGQSPQLLIYRASNLESGVPDRFSGSGSGTDFTLKISRVEAEDVGVYYCQQSHEDPYTFGQGTKLEIKR
B5: VSTB65 (antibody, V domains shown)
VH: QVQLVQSGAEVKKPGASVKVSCKASGYTFTSYWIHWVRQAPGQGLEWMGEINPSNGLTNYNEKFRNRVTMTRDTSTSTVYMELSSLRSEDTAVYYCARSYDYDGDYYAMDYWGQGTLVTVSS
VL: DIVMTQSPLSLPVTPGEPASISCRSTQSIVHSNGNTYLEWYLQKPGQSPQLLIYKVSNRFSGVPDRFSGSGSGTDFTLKISRVEAEDVGVYYCFQASHVPWTFGQGTKLEIKR
B6: VSTB78 (antibody, V domains shown)
VH: QVQLVQSGAEVKKPGASVKVSCKASGYTFTNYWMHWVRQAPGQGLEWMGYINPSSGYTEYNQKFKDRVTMTRDTSTSTVYMELSSLRSEDTAVYYCARDGGSVLFGYWGQGTTVTVSS
VL: DIVMTQSPDSLAVSLGERATINCKSSQSLLNSGIRKNYLAWYQQKPGQPPKLLIYSASTRESGVPDRFSGSGSGTDFTLTISSLQAEDVAVYYCKQSYNLYTFGQGTKLEIKR
B7: VSTB74 (antibody, V domains shown)
VH: QMQLVQSGPEVKKPGTSVKVSCKASGYIFTDYNIDWVRQARGQRLEWIGDINPKYDSTRYNQKFKGRVTITRDMSTSTAYMELSSLRSEDTAVYYCAADGSSAMDYWGQGTTVTVSS
VL: DIVMTQSPDSLAVSLGERATINCKSSQSLLNSGHQKNYLAWYQQKPGQPPKLLIYGASTRESGVPDRFSGSGSGTDFTLTISSLQAEDVAVYYCQNDHRYPLTFGQGTKLEIKR
B8: INX908 | VSTB92 (antibody, V domains shown)
VH: QVQLVQSGAEVKKPGASVKVSCKASGYTFANYLIGWVRQAPGQRLEWMGDIYPGGGFISYNEKFKGRVTITRDTSASTAYMELSSLRSEDTAVYYCARRFDYGGYFFDYWGQGTLVTVSS
VL: DIVMTQSPLSLPVTPGEPASISCRSSQSIVHSNGNIYLEWYLQKPGQSPQLLIYKVSNRFSGVPDRFSGSGSGTDFTLKISRVEAEDVGVYYCFQGSHVPWTFGQGTKLEIK
notes: INX name = the VSTB variable regions with human IgG2 constant regions; also called INX908 parental
B9: VSTB70 (antibody, V domains shown)
VH: EVQLVQSGAEVKKPGATVKISCKVSGYTFSNYWIEWVQQAPGKGLEWMGEILPGSGNVHYNEKFKGRVTITADTSTDTAYMELSSLRSEDTAVYYCATPPHYYGYDYYDVNYWGQGTLVTVSS
VL: DVVMTQSPLSLPVTLGQPASISCKSSQSLLDSDGKTYLNWFQQRPGQSPRRLIYLVSELDSGVPDRFSGSGSGTDFTLKISRVEAEDVGVYYCWQGTHFPQTFGQGTKLEIKR
B10: INX901 | VSTB56 (antibody, V domains shown)
VH: QVQLVQSGAEVKKPGASVKVSCKASGYTFTSYWLHWVRQAPGQGLEWMGYIIPNTLHTDYNQKFKDRVTMTRDTSTSTVYMELSSLRSEDTAVYYCARLDGDYDYALDYWGQGTLVTVSS
VL: DIVMTQTPLSLSVTPGQPASISCRASESVEYYGTSFMQWYLQKPGQPPQLLIYTASNVESGVPDRFSGSGSGTDFTLKISRVEAEDVGVYYCQQSRKVPYTFGQGTKLEIK
notes: INX name = the VSTB variable regions with native human IgG2 constant regions; also called INX901 parental
B11: INX902 | VSTB63 (antibody, V domains shown)
VH: QVQLQESGPGLVKPSETLSLTCAVSGFSITSDFAWNWIRQPPGKGLEWIGYITYSGFTNYNPSLESRVTISVDTSKNQFSLKLSSVTAADTAVYYCARQEYGNYVWYFDVWGQGTLVTVSS
VL: DIVMTQTPLSLSVTPGQPASISCRASESVEYYGTSLLQWYLQKPGQPPQLLIYAASNVESGVPDRFSGSGSGTDFTLKISRVEAEDVGVYYCQQSRKVPWTFGQGTKLEIK
notes: as for B1
B12: INX906 | VSTB54 (antibody, V domains shown)
VH: QVQLVQSGAEVKKPGASVKVSCKASGYNIKDTYMHWVRQAPGQGLEWMGRIDPTHGYVIYDPKFQGRVTMTRDTSTSTVYMELSSLRSEDTAVYYCARDRFDPYWFLDVWGQGTLVTVSS
VL: DIVMTQTPLSLSVTPGQPASISCRASESVEYYGTSLMQWYLQKPGQSPQLLIYDAFNVESGVPDRFSGSGSGTDFTLKISRVEAEDVGVYYCQQSRKVPWTFGQGTKLEIK
notes: as for B1
B13: INX907 | VSTB66 (antibody, V domains shown)
VH: QVQLVQSGAEVKKPGASVKVSCKASGYPFTGYFMHWVRQAPGQGLEWMGRINPYNGGTVYNQNFNDRVTMTRDTSTSTVYMELSSLRSEDTAVYYCARWTFDGLFMDYWGQGTTVTVSS
VL: DVVMTQSPLSLPVTLGQPASISCRASENVDKYGISFMNWFQQRPGQSPRRLIYATSNQGSGVPDRFSGSGSGTDFTLKISRVEAEDVGVYYCQQSKEDPYTFGQGTKLEIK
notes: as for B1

Target: T1, human VISTA (human, UniProt Q9H7M9 33-194, limits assumed)
T1 construct: The ELISA text says only recombinant VISTA; also called recombinant VISTA
Test: method not stated (Table 1, column Kd, M)

Binder	Kd
B1	632 pM
B2	106 pM
B3	312 pM
B4	356 pM
B5	1080 pM
B6	1130 pM
B7	562 pM
B8	93.4 pM
B9	2230 pM
B10	23.5 pM
B11	830 pM
B12	25.3 pM
B13	80.6 pM
